These results are taken from patent US6458355 (Genentech, dated 2002).

The target of this test is T1, recombinant human IL-8, (ser-IL-8)72 (human, UniProt P10145 28-99).
T1 construct: mature; also called human wild type IL-8; wt IL-8
T1 sequence (looked up): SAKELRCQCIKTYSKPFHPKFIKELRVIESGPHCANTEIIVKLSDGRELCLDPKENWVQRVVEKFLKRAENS
The experiment in a line: competition of 125I-IL-8 binding to human neutrophils.

B1: humanized 6G425 F(ab)-1 (Fab, V domains shown)
VH: EVQLVESGGGLVQPGGSLRLSCAASGYSFSSHYMHWVRQAPGKGLEWVGYIDPSNGETTYNQKFKGRFTISRDNSKNTLYLQMNSLRAEDTAVYYCARGDYRYNGDWFFDVWGQGT
VL: DIQMTQSPSSLSASVGDRVTITCRSSQSLVHGIGNTYLHWYQQKPGKAPKLLIYKVSNRFSGVPSRFSGSGSGTDFTLTISSLQPEDFATYYCSQSTHVPLTFGQGTKVEIKR
notes: Fab with human kappa subgroup I light and human IgG1 subgroup III heavy chain (pEMX1); CDR swap; also called version 1; V1
Take B1: the “fold reduction in binding affinity (against the chimeric F(ab))” value came to 5.5 fold.
